Measured values: article PMC8725002, “Crystal structure of a putative short-chain dehydrogenase/reductase from Paraburkholderia xenovorans” (Acta Crystallographica. Section F, Structural Biology …, 2022)

Tests used:
[1] = molecular target: the molecule itself; assay: SEC; Superdex 75, 25 mM HEPES pH 7.0, 500 mM NaCl, 5% glycerol, 2 mM DTT, 0.025% azide; second step of the purification; single large peak at ~76 kDa; self-association
[2] = molecular target: the molecule itself; assay: crystal structure; apo PxSDR, space group P2(1), 1.45 Å; sitting drop, 0.2 M magnesium chloride, 0.1 M bis-Tris pH 5.5, 25% PEG 3350, 287 K; self-association: tetramer

B1: putative short-chain dehydrogenase/reductase from Paraburkholderia xenovorans (His-PxSDR) (enzyme)
chain: MSSAGRLQGKVALVTGAGCIGPGWGNGRAIAVRFAEEGAHVIAVDRDLASMDATLELVRAAGGSVTPCLCDVTDSASVERLVADSVARCGRVDILVNNVGAPSPGGPVALDEAQWAMQLELNLTTAFLMCKYVLPVMEQQGGGAIVNIASTSGIRWTGAAQVGYAAAKAGMIQMGRVVAVEYAAKNVRVNSVVPGLLHTPMVDTKIAHNQAGGDVELLLRKRQARIPMPFMGDGRDTANAALFLASDEARFVTGTEIVVDGGMSARCD
notes: putative short-chain dehydrogenase/reductase (PxSDR), Paraburkholderia xenovorans strain LB400, UniProt Q13GE3, full length, amplified from genomic DNA; copies therefore left empty; also called P. xenovorans SDR; putative short-chain reductase; source: E. coli BL21(DE3)R3 Rosetta, purified (IMAC on Ni-NTA HisTrap FF, SEC on Superdex 75)
[1]
  stoichiometry N: 2
[2]
  stoichiometry N: 4
